Tests used:
HLA-A*24:03 = assay: IEDB peptide-MHC binding, purified MHC/competitive/fluorescence; filed as Kd, often an IC50 or EC50 that approximates it; ≥ and ≤ were set here for values at or beyond the usual limits of such assays; details: source organism: Influenza A virus (A/Harbin/1/1988(H1N2))
HLA-A*01:01 = assay: IEDB peptide-MHC binding, purified MHC/direct/fluorescence; filed as Kd, often an IC50 or EC50 that approximates it; ≥ and ≤ were set here for values at or beyond the usual limits of such assays
HLA-A*02:01 = assay: as above
HLA-A*03:01 = assay: as above
HLA-A*11:01 = assay: as above
HLA-A*24:02 = assay: as above
HLA-A*31:01 [1] = assay: as above
HLA-A*69:01 = assay: as above
HLA-B*07:02 = assay: as above
HLA-B*08:01 = assay: as above
HLA-B*08:02 = assay: as above
HLA-B*15:01 [2] = assay: as above
HLA-B*27:05 = assay: as above
HLA-B*39:01 [3] = assay: as above; details: source organism: H9N2 subtype Influenza A virus (A/swine/Korea/S83/2004(H9N2))
HLA-B*40:01 = assay: as above
HLA-B*44:02 = assay: as above
HLA-B*46:01 = assay: as above
HLA-B*58:01 = assay: as above
HLA-A*26:01 = assay: as above
HLA-B*15:17 = assay: as above; details: source organism: Mycobacterium tuberculosis
HLA-B*18:01 = assay: as above
HLA-B*48:01 = assay: as above; details: source organism: Mycobacterium tuberculosis
HLA-B*51:01 = assay: as above; details: source organism: Mycobacterium tuberculosis
HLA-B*57:01 = assay: as above; details: source organism: Mycobacterium tuberculosis
HLA-B*39:01 [4] = assay: IEDB peptide-MHC binding, purified MHC/competitive/fluorescence; filed as Kd, often an IC50 or EC50 that approximates it; ≥ and ≤ were set here for values at or beyond the usual limits of such assays; details: source organism: Parafrankia sp. EAN1pec
HLA-B*15:01 [5] = assay: IEDB peptide-MHC binding, purified MHC/competitive/radioactivity; filed as Kd, often an IC50 or EC50 that approximates it; ≥ and ≤ were set here for values at or beyond the usual limits of such assays; details: source organism: Dengue virus 2 Jamaica/1409/1983
HLA-A*02:03 = assay: IEDB peptide-MHC binding, purified MHC/direct/fluorescence; filed as Kd, often an IC50 or EC50 that approximates it; ≥ and ≤ were set here for values at or beyond the usual limits of such assays; details: source organism: Influenza A virus(A/swine/Henan/5/2004(H9N2))
HLA-A*02:11 = assay: as above; details: source organism: Influenza A virus(A/swine/Henan/5/2004(H9N2))
HLA-A*02:19 = assay: as above; details: source organism: Influenza A virus(A/swine/Henan/5/2004(H9N2))
HLA-B*15:09 = assay: as above; details: source organism: Influenza A virus(A/swine/Henan/5/2004(H9N2))
HLA-A*31:01 [6] = assay: IEDB peptide-MHC binding, purified MHC/competitive/fluorescence; filed as Kd, often an IC50 or EC50 that approximates it; ≥ and ≤ were set here for values at or beyond the usual limits of such assays; details: source organism: Influenza A virus (A/Fort Monmouth/1/1947-mouse adapted(H1N1))
[7] = source organism: H9N2 subtype Influenza A virus (A/swine/Korea/S83/2004(H9N2))
[8] = source organism: Influenza A virus (A/Puerto Rico/8/34/Mount Sinai(H1N1))
[9] = source organism: Mycobacterium tuberculosis
[10] = source organism: Mycobacterium tuberculosis C
[11] = source organism: Influenza A virus (A/chicken/Vietnam/393/2005(H5N1))
[12] = source organism: Influenza A virus(A/swine/Shandong/fNY/2003(H9N2))
[13] = source organism: Influenza A virus (A/swine/Hong Kong/5190/99(H3N2))

Sequence: CYPGYFADY
- Kd (HLA-A*24:03): ≤ 0.001 µM

Sequence: HFQKDAKVL
- Kd (HLA-A*01:01; [7]): ≥ 20 µM
- Kd (HLA-A*02:01; [7]): ≥ 20 µM
- Kd (HLA-A*03:01; [7]): ≥ 20 µM
- Kd (HLA-A*11:01; [7]): ≥ 20 µM
- Kd (HLA-A*24:02; [7]): ≥ 20 µM
- Kd (HLA-A*31:01 [1]; [7]): ≥ 20 µM
- Kd (HLA-A*69:01; [7]): ≥ 20 µM
- Kd (HLA-B*07:02; [7]): ≥ 20 µM
- Kd (HLA-B*08:01; [8]): 2.3 µM
- Kd (HLA-B*08:02; source organism: Influenza A virus(A/swine/Shandong/fZC/2003(H9N2))): ≥ 20 µM
- Kd (HLA-B*15:01 [2]; [8]): 2.66 µM
- Kd (HLA-B*27:05; [7]): ≥ 20 µM
- Kd (HLA-B*39:01 [3]): 10.4 µM
- Kd (HLA-B*40:01; [7]): ≥ 20 µM
- Kd (HLA-B*44:02; [7]): ≥ 20 µM
- Kd (HLA-B*46:01; [7]): ≥ 20 µM
- Kd (HLA-B*58:01; [7]): ≥ 20 µM

Sequence: KPARGGSSI
- Kd (HLA-A*01:01; [9]): ≥ 20 µM
- Kd (HLA-A*02:01; [9]): ≥ 20 µM
- Kd (HLA-A*03:01; [9]): ≥ 20 µM
- Kd (HLA-A*11:01; [9]): ≥ 20 µM
- Kd (HLA-A*26:01; [10]): ≥ 20 µM
- Kd (HLA-A*31:01 [1]; [9]): ≥ 20 µM
- Kd (HLA-A*69:01; [9]): ≥ 20 µM
- Kd (HLA-B*08:02; [10]): ≥ 20 µM
- Kd (HLA-B*15:01 [2]; [9]): ≥ 20 µM
- Kd (HLA-B*15:17): ≥ 20 µM
- Kd (HLA-B*18:01; [9]): ≥ 20 µM
- Kd (HLA-B*27:05; [9]): ≥ 20 µM
- Kd (HLA-B*40:01; [9]): ≥ 20 µM
- Kd (HLA-B*46:01; [9]): ≥ 20 µM
- Kd (HLA-B*48:01): ≥ 20 µM
- Kd (HLA-B*51:01): 2.62 µM
- Kd (HLA-B*57:01): ≥ 20 µM
- Kd (HLA-B*58:01; [9]): ≥ 20 µM
- Kd (HLA-B*39:01 [4]): 2.76 µM

Sequence: QLKGMSYSM
- Kd (HLA-B*08:02; source organism: Dengue virus 2 Thailand/16681/84): ≥ 20 µM
- Kd (HLA-B*15:01 [5]): 0.0539 µM

Sequence: VLTGNLQTL
- Kd (HLA-A*01:01; [11]): ≥ 20 µM
- Kd (HLA-A*03:01; [11]): ≥ 20 µM
- Kd (HLA-A*11:01; [11]): ≥ 20 µM
- Kd (HLA-A*24:02; [11]): ≥ 20 µM
- Kd (HLA-A*26:01; [12]): ≥ 20 µM
- Kd (HLA-A*31:01 [1]; [11]): ≥ 20 µM
- Kd (HLA-A*69:01; [11]): ≥ 20 µM
- Kd (HLA-B*07:02; [11]): ≥ 20 µM
- Kd (HLA-B*08:01; [11]): ≥ 20 µM
- Kd (HLA-B*08:02; [12]): ≥ 20 µM
- Kd (HLA-B*15:01 [2]; [11]): ≥ 20 µM
- Kd (HLA-B*18:01; [11]): ≥ 20 µM
- Kd (HLA-B*27:05; [11]): ≥ 20 µM
- Kd (HLA-B*40:01; [11]): ≥ 20 µM
- Kd (HLA-B*44:02; [11]): ≥ 20 µM
- Kd (HLA-B*46:01; [11]): ≥ 20 µM
- Kd (HLA-B*58:01; [11]): ≥ 20 µM

Sequence: YMFESKSMK
- Kd (HLA-A*01:01; [13]): ≥ 20 µM
- Kd (HLA-A*02:01; [8]): 0.478 µM
- Kd (HLA-A*02:03): 0.024 µM
- Kd (HLA-A*02:11): 0.003 µM
- Kd (HLA-A*02:19): ≥ 20 µM
- Kd (HLA-A*03:01; [8]): 0.232 µM
- Kd (HLA-A*24:02; [13]): ≥ 20 µM
- Kd (HLA-A*26:01; source organism: Influenza A virus(A/swine/Henan/5/2004(H9N2))): ≥ 20 µM
- Kd (HLA-B*07:02; [13]): ≥ 20 µM
- Kd (HLA-B*15:01 [2]; [13]): ≥ 20 µM
- Kd (HLA-B*15:09): ≥ 20 µM
- Kd (HLA-B*18:01; [13]): ≥ 20 µM
- Kd (HLA-B*27:05; [8]): 0.155 µM
- Kd (HLA-B*40:01; [13]): ≥ 20 µM
- Kd (HLA-B*44:02; [13]): ≥ 20 µM
- Kd (HLA-B*46:01; [13]): ≥ 20 µM
- Kd (HLA-B*58:01; [13]): ≥ 20 µM
- Kd (HLA-A*31:01 [6]): 0.0212 µM
